Where a chain is given by its changes, count along the chain named. Names and notes keep the numbering of the source.
T1: membrane-bound human TL1A (Met and FLAG tag at the N-terminus) on CHO-K1 cells (human, UniProt O95150 2-251)
T1 construct: also called TL1A/CHO
T1 sequence: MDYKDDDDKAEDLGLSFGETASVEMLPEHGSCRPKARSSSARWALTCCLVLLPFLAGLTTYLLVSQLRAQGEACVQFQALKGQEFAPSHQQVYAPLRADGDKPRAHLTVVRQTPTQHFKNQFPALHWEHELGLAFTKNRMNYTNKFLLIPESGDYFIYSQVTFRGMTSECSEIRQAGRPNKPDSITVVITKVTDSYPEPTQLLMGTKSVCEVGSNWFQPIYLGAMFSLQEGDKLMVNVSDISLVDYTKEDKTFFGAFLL

T2: soluble recombinant of human TL1A (His6, GS linker, Leu72-Leu251) (human, UniProt O95150 72-251)
T2 construct: also called His6-TL1A; hTL1A
T2 sequence: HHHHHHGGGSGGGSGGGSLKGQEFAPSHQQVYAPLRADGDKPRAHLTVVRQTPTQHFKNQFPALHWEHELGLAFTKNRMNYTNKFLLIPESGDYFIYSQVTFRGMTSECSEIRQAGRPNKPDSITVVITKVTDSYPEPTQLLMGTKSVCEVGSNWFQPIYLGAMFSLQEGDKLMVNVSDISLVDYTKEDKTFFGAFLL

T3: soluble recombinant of cynomolgus monkey FasL (His6, Pro133-Leu280) (cynomolgus monkey, UniProt P63308 133-280)
T3 construct: also called His6-cynoFasL
T3 sequence: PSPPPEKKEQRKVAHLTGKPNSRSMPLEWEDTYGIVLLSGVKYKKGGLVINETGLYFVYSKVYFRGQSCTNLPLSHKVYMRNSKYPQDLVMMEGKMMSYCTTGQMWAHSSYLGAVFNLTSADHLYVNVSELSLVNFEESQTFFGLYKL

T4: Human His6 Fas Ligand/TNFSF6 (Cell Signaling Technology, Inc.) (human, UniProt P48023 133-281)
T4 construct: Bought; confirmed as a trimer by SEC-MALS; also called recombinant human His6 Fas Ligand; soluble human FasL trimer
T4 sequence: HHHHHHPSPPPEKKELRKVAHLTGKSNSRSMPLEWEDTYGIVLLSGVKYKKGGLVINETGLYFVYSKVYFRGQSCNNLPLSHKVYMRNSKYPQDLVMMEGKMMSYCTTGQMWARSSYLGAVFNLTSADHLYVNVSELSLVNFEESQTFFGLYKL

T5: soluble recombinant of cynomolgus monkey LIGHT (His10, GS linker, Asp74-Val240)
T5 chain: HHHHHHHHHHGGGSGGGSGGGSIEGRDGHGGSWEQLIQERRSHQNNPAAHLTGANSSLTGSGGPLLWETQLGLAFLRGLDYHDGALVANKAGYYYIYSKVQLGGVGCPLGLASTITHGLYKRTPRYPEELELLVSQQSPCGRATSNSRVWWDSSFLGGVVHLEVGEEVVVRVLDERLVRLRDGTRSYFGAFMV

T6: soluble recombinant of cynomolgus monkey FasL (His6, Pro133-Leu280) (UniProt P63308 133-280)
T6 chain: T3 sequence

T7: soluble recombinant of cynomolgus monkey TL1A (His6, GS linker, Leu72-Leu251)
T7 chain: T2 sequence with F57L, I96V

B1: chimera A-E57K_R58D-Fc (Eg1S LALAGANA) (Fc fusion)
chain: ETFPPKYLHYDEETSHQLLCDKCPPGTYLKQHCTAKWKTVCAPCPPRHYTQFWNYLKDCRYCNVLCGEREEEARACHATHNRACRCRTGFFAHAGFCLEHASCPPGAGVIAPGTPSQNTQCQPCPDGFFSNETSSKAPCRKHTNCSVFGLLLTQKGNATHDNICSGNSESTQKEPKSSDKTHTCPPCPAPEAAGAPSVFLFPPKPKDTLMISRTPEVTCVVVDVSHEDPEVKFNWYVDGVEVHNAKTKPREEQYNSTYRVVSVLTVLHQDWLNGKEYKCKVSNKALPAPIEKTISKAKGQPREPQVYTLPPSRDELTKNQVSLTCLVKGFYPSDIAVEWESNGQPENNYKTTPPVLDSDGSFFLYSKLTVDKSRWQQGNVFSCSVMHEALHAHYTQKSLSLSPGK
B2: chimera A-E57R-Fc (Eg1S YTE) (Fc fusion)
chain: B1 chain with K57R, D58R, A192L, A193L, A195G, M210Y, S212T, T214E, A392N
B3: chimera A-E57V-Fc (Eg1S YTE) (Fc fusion)
chain: B1 chain with K57V, D58R, A192L, A193L, A195G, M210Y, S212T, T214E, A392N
B4: chimera A-E57V-Fc (Eg1S LALAGANA) (Fc fusion)
chain: B1 chain with K57V, D58R
B5: chimera A-E57K-Fc (Eg1S YTE) (Fc fusion)
chain: B1 chain with D58R, A192L, A193L, A195G, M210Y, S212T, T214E, A392N
B6: chimera A-Fc (Eg1S YTE) (Fc fusion)
chain: B1 chain with K57E, D58R, A192L, A193L, A195G, M210Y, S212T, T214E, A392N
B7: chimera A-Fc (Eg1S LALAGANA) (Fc fusion)
chain: B1 chain with K57E, D58R
B8: chimera A-E57R-Fc (Eg1S LALAGANA) (Fc fusion)
chain: B1 chain with K57R, D58R
B9: chimera A-E57K_R58E-Fc (Eg1S LALAGANA) (Fc fusion)
chain: B1 chain with D58E
B10: chimera A-E57K-Fc (Eg1S LALAGANA) (Fc fusion)
chain: B1 chain with D58R
B11: chimera A-E57K_R58D-Fc (Eg1S YTE) (Fc fusion)
chain: B1 chain with A192L, A193L, A195G, M210Y, S212T, T214E, A392N
notes: also called 45-10-Fc (Eg1S YTE)
B12: chimera A-E57K_R58E-Fc (Eg1S YTE) (Fc fusion)
chain: B1 chain with D58E, A192L, A193L, A195G, M210Y, S212T, T214E, A392N
notes: also called 45-18-Fc (Eg1S YTE)

Biological target: T8, membrane-bound human LIGHT (human, UniProt O43557 1-240)
T8 construct: whole, on cells; also called LIGHT/HEK293
T8 sequence (O43557 whole entry): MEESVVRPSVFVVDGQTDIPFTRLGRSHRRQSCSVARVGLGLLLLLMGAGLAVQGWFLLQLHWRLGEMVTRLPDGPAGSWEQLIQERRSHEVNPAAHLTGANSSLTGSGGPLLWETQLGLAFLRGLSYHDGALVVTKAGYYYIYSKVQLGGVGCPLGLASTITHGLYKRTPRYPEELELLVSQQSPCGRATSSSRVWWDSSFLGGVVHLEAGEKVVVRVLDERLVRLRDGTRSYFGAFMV
Experiment: flow cytometry on expressing cells
Method in brief: (§1)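 Binding was measured by flow cytometry on HEK293 cells forced to express membrane-bound LIGHT and on cell lines expressing N-terminally Met/FLAG-tagged TL1A or FasL from a CMV-promoter pClpuro vector. Cells at 1×10⁵ cells/well received 1 or 10 μg/mL protein on ice for 1 hour. After washing, cells were stained on ice for 1 hour with LIVE/DEAD Fixable Aqua and R-phycoerythrin goat F(ab′)₂ anti-human IgG (10 ng/mL, 0.1 or 1 μg/mL). Fluorescence was read on a FACS Fortessa.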

binding result	Binder
binds	B1
binds	B2
binds	B3
binds	B4
binds	B5
binds	B6
binds	B7
binds	B8
binds	B9
binds	B10
binds	B11
binds	B12

Biological target: T1, membrane-bound human TL1A (Met and FLAG …)
Experiment: flow cytometry on expressing cells
Method in brief: as §1

binding result	Binder
binds	B1
binds	B2
binds	B3
binds	B4
binds	B5
binds	B6
binds	B7
binds	B8
binds	B9
binds	B10
binds	B11
binds	B12

Biological target: T2, soluble recombinant of human TL1A …
Experiment: SPR, binder captured on Protein A chip
Description: (§2) The binding activity to human and cynomolgus monkey DcR3 ligand trimers were analyzed by the SPR method. BIAcore T-100 (GE Healthcare) was used for measurement of the binding activities to human LIGHT, cynomolgus monkey LIGHT, human TL1A and cynomolgus monkey TL1A, and BIAcore T-200 (GE Healthcare) was used for measurement of the binding activities to human FasL and cynomolgus monkey FasL. As the buffer, HBS-EP+Buffer was used.
(§3) Various DcR3 variants were injected into Series S Sensor Chip Protein A (GE Healthcare) at 10 μL/min for 30 seconds and captured. Meanwhile, the buffer containing no protein was injected into a reference flow cell. Thereafter, as an analyte, each human DcR3 ligand trimer or each cynomolgus monkey DcR3 ligand trimer diluted to 0.08 to 20 nmol/L was injected. A human LIGHT trimer, a human TL1A trimer or each cynomolgus monkey DcR3 ligand trimer was injected at the flow rate of 30 μL/min for 2 minutes to monitor the binding, and subsequently the buffer was injected for 5 minutes to monitor dissociation. A human FasL trimer was injected at 30 μL/min for 1 minute to monitor the binding, and subsequently the buffer was injected for 3 minutes to monitor dissociation. Then, 3 mol/L magnesium chloride was injected at 30 μL/min for 1 minute to perform a regeneration reaction.

binding result	Binder
binds	B1
binds	B2
binds	B3
binds	B4
binds	B5
binds	B6
binds	B7
binds	B8
binds	B9
binds	B10
binds	B11
binds	B12

Biological target: T3, soluble recombinant of cynomolgus …
Experiment: SPR, binder captured on Protein A chip
Description: as §2, §3

binding result	Binder
binds	B1
binds	B2
binds	B3
binds	B4
binds	B5
binds	B6
binds	B7
binds	B8
binds	B9
binds	B10
binds	B11
binds	B12

Biological target: T9, FLAG-LIGHT (FLAG tag, human LIGHT Asp74-Val240) (human, UniProt O43557 74-240)
T9 construct: SEC trimer fraction; also called soluble recombinant FLAG-LIGHT trimer; soluble human LIGHT trimer
Experiment: SPR, binder captured on Protein A chip
Description: as §2, §3

binding result	Binder
binds	B1
binds	B2
binds	B3
binds	B4
binds	B5
binds	B6
binds	B7
binds	B8
binds	B9
binds	B10
binds	B11
binds	B12

Biological target: T4, Human His6 Fas Ligand/TNFSF6 (Cell …)
Experiment: SPR, binder captured on Protein A chip
Description: as §2, §3

binding result	Binder
binds	B1
binds	B2
binds	B3
binds	B4
binds	B5
binds	B6
binds	B7
binds	B8
binds	B9
binds	B10
binds	B11
binds	B12

Biological target: T5, soluble recombinant of cynomolgus …
Experiment: BIAcore SPR
Method in brief: (§4)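 Binding of each test molecule to soluble recombinant His-tagged human or cynomolgus monkey LIGHT, TL1A or FasL was analysed by surface plasmon resonance. Measurements used a BIAcore T-100 or T-200 instrument (GE Healthcare) in HBS-EP+ Buffer. The dissociation constant (Kd, nM) was derived from these measurements.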

Kd	Binder
0.3 nM	B1
0.3 nM	B2
0.34 nM	B3
0.35 nM	B4
0.26 nM	B5
0.28 nM	B6
0.21 nM	B7
0.29 nM	B8
0.28 nM	B9
0.28 nM	B10
0.31 nM	B11
0.35 nM	B12

Biological target: T6, soluble recombinant of cynomolgus …
Experiment: BIAcore SPR
Method in brief: as §4

Kd	Binder
0.96 nM	B1
1.2 nM	B2
1.1 nM	B3
1.1 nM	B4
1.1 nM	B5
0.27 nM	B6
0.22 nM	B7
1.1 nM	B8
0.99 nM	B9
1.1 nM	B10
1.2 nM	B11
1.2 nM	B12

Biological target: T7, soluble recombinant of cynomolgus …
Experiment: BIAcore SPR
Method in brief: as §4

Kd	Binder
0.19 nM	B1
0.36 nM	B2
0.22 nM	B3
0.21 nM	B4
0.31 nM	B5
0.17 nM	B6
0.11 nM	B7
0.32 nM	B8
0.17 nM	B9
0.27 nM	B10
0.25 nM	B11
0.21 nM	B12
